Positions count from the first letter of the chain named.
Legend:
[1] = molecular target: T1, cynomolgus macaque IL-17A (Macaca fascicularis, UniProt A0A2K5TTB0); test: SPR; Biacore T200, CM5 chip; IgG1 captured by F(ab')2 fragment-specific or Fcγ-specific goat anti-human IgG F(ab')2; cytokine titrated over it (10 nM IL-17F or 5 nM IL-17A and IL-17A/F downwards); HBS-EP pH 7.4, 25°C; conditions: both partners purified
T1 construct: interleukin-17A, cynomolgus macaque; source: generated at UCB

[2] = molecular target: T2, cynomolgus macaque IL-17F (Macaca fascicularis, UniProt G7P4V0); test: as above; conditions: both partners purified
T2 construct: interleukin-17F, cynomolgus macaque; source: generated at UCB

[3] = molecular target: T3, human IL-17F (R&D Systems) (Homo sapiens, UniProt Q96PD4); test: cell-based or functional assay
[4] = molecular target: human IL-17A/F heterodimer (Homo sapiens, UniProt Q16552;Q96PD4); test: cell-based or functional assay
[5] = molecular target: T4, human IL-17A (generated at UCB) (Homo sapiens, UniProt Q16552); test: cell-based or functional assay
[6] = molecular target: T4, human IL-17A (generated at UCB); test: SPR; Biacore T200, CM5 chip; Fab captured on immobilised anti-human F(ab')2; cytokine titrated over it; HBS-EP pH 7.4, 25°C; conditions: both partners purified
[7] = molecular target: T3, human IL-17F (R&D Systems); test: as above; conditions: both partners purified

T4 sequence (Q16552 24-155): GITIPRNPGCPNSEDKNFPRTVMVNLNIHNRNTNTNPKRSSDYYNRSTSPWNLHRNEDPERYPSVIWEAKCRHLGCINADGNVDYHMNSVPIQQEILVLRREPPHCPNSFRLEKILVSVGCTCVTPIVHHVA
T3 sequence (Q96PD4 31-163): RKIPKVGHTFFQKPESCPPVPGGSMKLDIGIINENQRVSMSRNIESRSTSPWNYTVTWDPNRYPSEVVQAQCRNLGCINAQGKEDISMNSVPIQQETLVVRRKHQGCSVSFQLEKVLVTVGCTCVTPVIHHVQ
Sequence of human IL-17A/F heterodimer (Q16552 24-155, chain 1 of 2): as the sequence (Q16552 24-155) above
Sequence of human IL-17A/F heterodimer (Q96PD4 31-163, chain 2 of 2): as the sequence (Q96PD4 31-163) above

B1: 496.g3 IgG1 (bimekizumab) (antibody, V domains shown)
VH: EVQLVESGGGLVQPGGSLRLSCAASGFTFSDYNMAWVRQAPGKGLEWVATITYEGRNTYYRDSVKGRFTISRDNAKNSLYLQMNSLRAEDTAVYYCASPPQYYEGSIYRLWFAHWGQGTLVTVSS
VL: AIQLTQSPSSLSASVGDRVTITCRADESVRTLMHWYQQKPGKAPKLLIYLVSNSEIGVPDRFSGSGSGTDFRLTISSLQPEDFATYYCQQTWSDPWTFGQGTKVEIK
- Kd [1]: 12.3 pM
- Kd [2]: 345 pM
- IC50 of neutralization of IL-17F (30 ng/mL, with TNF 1 ng/mL): IL-6 production by NHDFs [3]: 0.0321 µg/mL
- IC50 of neutralization of IL-17A/F (30 ng/mL, with TNF 1 ng/mL): IL-6 production by NHDFs [4]: 0.0489 µg/mL
- IC50 of neutralization of IL-17A (1 ng/mL, with TNF 1 ng/mL): IL-6 production by NHDFs [5]: 0.0004 µg/mL

B2: 496.g3 Fab (Fab, V domains shown)
VH: B1 VH
VL: B1 VL
- Kd [6]: 7.2 pM

B3: 496.g1 Fab (Fab, V domains shown)
VH: B1 VH
VL: B1 VL with R30T, S54R, I56S, D60S, R72T
- Kd [7]: 1510 pM
- Kd [6]: 29.2 pM
